Binding data for one sequence are collected here from publication PMC7775534.

In the series the target is T1, DR_1836 (DrSRP protein, Ffh homolog) (Deinococcus radiodurans R1 (ATCC 13939)) (UniProt Q9RTC9).
T1 sequence: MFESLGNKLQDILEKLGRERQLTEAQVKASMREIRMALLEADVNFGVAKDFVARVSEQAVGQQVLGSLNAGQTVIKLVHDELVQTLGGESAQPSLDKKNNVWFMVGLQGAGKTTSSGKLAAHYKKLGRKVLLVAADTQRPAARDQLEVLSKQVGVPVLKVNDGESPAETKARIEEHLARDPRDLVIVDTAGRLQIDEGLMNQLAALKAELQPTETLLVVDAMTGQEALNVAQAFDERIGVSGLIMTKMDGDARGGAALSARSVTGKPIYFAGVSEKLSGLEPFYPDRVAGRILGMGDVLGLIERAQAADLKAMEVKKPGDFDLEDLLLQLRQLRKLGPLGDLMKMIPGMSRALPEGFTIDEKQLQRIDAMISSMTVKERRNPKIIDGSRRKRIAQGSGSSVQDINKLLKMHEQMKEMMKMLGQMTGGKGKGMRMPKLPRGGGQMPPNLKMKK
In words: EMSA. Particulars: 20 mM Tris-HCl pH 8.0, 1 mM MgCl2, 20 mM KCl, 10 mM Na phosphate pH 8.0, 10% glycerol, 0.2 mM DTT, 37 C 1 h; 4% native PAGE, 0.5x TBE, 4 C.

For “GGGAGACGCCAGACGUAGGGCAGUACCCCCUUCUCUGCACAGCGCCCGCAACUGUGCUACCAUCCUUCCCGCAUUGCUGGUGCAGCGCAGCGCGGACGCCCGAACCUGGUCAGAGCCGGAAGGCAGCAGCCAUAAGGGAUGCUUUGCGGGUGCCGUUGCCUUCCGGCAAUGCUUUUUUCGUCUCUCCUCGGGGUCGCUUACGGGCGGCCCUGUUUUGUUGUGCUUAGAGCAAUUGACAGAA [Qpr6 (SRP RNA)]”, the binding entry is “binds”.
